PMC7319273 (Science (New York, N.y.), 2020)

Tests used:
Conditions in all cases: both partners purified
[1] = biological target: SARS-CoV-2 Spike protein S1 (SARS-CoV-2, Wuhan-Hu-1 (P0DTC2), UniProt P0DTC2); experiment: BLI
[2] = biological target: SARS-CoV-2 Spike protein S2 (SARS-CoV-2, Wuhan-Hu-1 (P0DTC2), UniProt P0DTC2); experiment: BLI
[3] = biological target: T1, SARS-CoV-2 Spike protein receptor binding domain (RBD) (Severe acute respiratory syndrome …, UniProt P0DTC2); experiment: BLI
[4] = biological target: T1, SARS-CoV-2 Spike protein receptor …; experiment: ELISA

Row | Binder | Kd [1] [nM] | Kd [2] [nM] | other results
1 | 1M-1D2 (human monoclonal antibody) (antibody, V domains shown) VH: QVQLVESGGGLVQPGGSLRLSCAASGFTFSSYAMHWVRQAPGKGLEYVSAISGNGGSTYYAKSVKGRFTISRDNSKNTLYLQMGSLRAEDMAVYYCARGAEYYDFWSGYYSAYFDYWGQGTLVTVSS VL: QAVVTQPPSASGTPGQRVTISCSGSSSNIGSNYVYWYQQLPGTAPKLLIYNNNQRPSGVPDRFSGSKSGTSASLAISGLRSEDEADYYCAAWDDSLIYVLFGGGTKLTVL | 108 |  | 
2 | 0304-3H3 (human monoclonal antibody) (antibody, V domains shown, also called mAb 0304-3H3) VH: EVQLVESGPGLVKPSETLSLTCTASGGSISTYYWSWIRQPPGKGLEWIGYIYYSGSTNYNPSLKSRVTISVDTSKNQFSLKLSSVTAADTAVYYCARDRIAPVGKFFGWYFDLWGRGTLVTVSS VL: not shown |  | 4.52 | 
3 | 2M-10B11 (human monoclonal antibody) (antibody, V domains shown, ELISA group 2B; also called mAb 2M-10B11) VH: EVQLVESGGGLVQPGGSLRLSCAASGFTVSSNYMSWVRQAPGKGLEWVSVIYSGGSTYYADSVKGRFTISRDNSKNTLYLQMNSLRAEDTAVYYCARATWLRGVMDVWGQGTTVTVSS VL: QSALTQPHSVSESPGKTVTISCTGSSGSIASNYVQWYQQRPGSAPTTVIYEDNQRPSGVPDRFSGSIDSSSNSASLTISGLKTEDEADYYCQSYDSSNHWVFGGGTKLTVL |  |  | Kd [3]: 24.3 nM
4 | 9A1 (human monoclonal antibody) (antibody, V domains shown, also called mAb 9A1) VH: EVQLLESGGGVVQPGRSLRLSCVVSGFTFNNYGMHWVRQAPGKGLEWVAVISYEGSVKYYGDHVDGRFTISRDPFKNTLYLHMNNLRPDDTAVYYCAKVSAIFWLGQGLSPIDVWGQGTTVTVSS VL: DIVMTQSPATLSASPGERVTLSCRASQNIRNNLAWYQQKPGQAPRLLIHGASTRAAGAPARFSGSGSDTQFTLTVSSLQSEDFAVYYCHQYSKWPVTFGGGTKVDIK |  | < 0.001 | 
5 | 4A8 (human monoclonal antibody) (antibody, V domains shown) VH: EVQLVESGAEVKKPGASVKVSCKVSGYTLTELSMHWVRQAPGKGLEWMGGFDPEDGETMYAQKFQGRVTMTEDTSTDTAYMELSSLRSEDTAVYYCATSTAVAGTPDLFDYYYGMDVWGQGTTVTVSS VL: EIVMTQSPLSSPVTLGQPASISCRSSQSLVHSDGNTYLSWLQQRPGQPPRLLIYKISNRFSGVPDRFSGSGAGTDFTLKISRVEAEDVGVYYCTQATQFPYTFGQGTKVDIK | 92.7 |  | binding result [4]: no binding
